This test deals with T1, human epidermal growth factor receptor (EGFR) on A431 cells (human, UniProt P00533 25-1210).
T1 construct: whole, on cells; The target is presented on fixed A431 cells
As to the kind of experiment: ELISA on fixed A431 cells, anti-human Fc-HRP detection, SigmaPlot fit. As for the experimental part: A431 cells in a concentration of 4×10⁵ cell/ml were seeded in Corning CellBIND 96-well plate for 16-24 h before assay. After PBS wash, the A431 cells were fixed with BD CytoFix fixation buffer for 15-20 min at room temperature. After fixation and PBS wash procedure, the A431 cells were blocked with StartingBlock blocking buffer for 30 min at 37° C. Plates were washed three times with PBST wash buffer and incubated with the indicated concentrations of dAb-D2-hFc and VH-dAb-D2×4-Ig in 50 ul StartingBlock blocking buffer on ice for 1.5 h. Wells were washed three times with PBST wash buffer. After washing, the plate was incubated with HRP-conjugated anti-human Fc antibody diluted 1:10,000 in StartingBlock blocking buffer on ice for 1 hour. Plates were washed and incubated with TMB. Absorbance at 450 nm was read on a microplate reader.
(In an ELISA, binding on a coated surface is turned into a signal by an enzyme label.)

B1: VH-dAb-D2×4-Ig tetrameric antibody (antibody, V domains shown)
V domain 1: QVQLLESGGGLVQPGGSLRLSCAASGYRFNSEAMGWVRQAPGKGLEWVSSINMRGGSTYYADSVKGRFTISRDNSKNTLYLQMNSLRAEDTAVYYCATVPRSMWWAGLTAKPIRYWGQGTLVTVSS
V domain 2: B1 V domain 1
notes: also called tetravalent antibody; tetravalent fusion protein; not shown: CH1, CH2 and CH3 of human IgG; CL of human IgG
B1: the Kd – broadly, the free concentration of one partner at which half of the binding sites on the other are occupied at equilibrium, for simple one-to-one binding – was ~6 nM.

The record behind these values is patent US20130171174A1 (INDUSTRIAL TECHNOLOGY RESEARCH INSTITUTE, published 2013).
